Starred links: 1 amine or outer side, 2 acyl side, 3 side chain; linkers in the order of their positions; H or OH if unused. Non-standard residues stand in square brackets, D forms with d. Groups on a side chain read outwards from the residue. No end group written: not given here. *: point of attachment. C20 diacid = O=C(O)CCCCCCCCCCCCCCCCCCC(=O)*; C18 diacid = O=C(O)CCCCCCCCCCCCCCCCC(=O)*; γGlu = O=C(O)[C@H](CCC(=O)[*:2])N[*:1]; αMeF = C[C@](N)(Cc1ccccc1)C(=O)O; AEEA = NCCOCCOCC(=O)O; Aib = CC(C)(N)C(=O)O

The target of one test is human GLP-1 receptor (human, UniProt P43220). Kind of test: cell-based or functional assay.
The next test deals with human glucagon receptor (human, UniProt P47871). The test can be described thus: cell-based or functional assay.

B1: Peptide 472 (peptide)
peptide: H[Aib]QGTFTSDVSK[αMeF]LDKK([AEEA-AEEA-γGlu-C18 diacid])RARDFVQWLL[Aib]E-NH2
modifications: N-terminus assumed
SMILES: CC(C)C[C@H](NC(=O)[C@H](Cc1c[nH]c2ccccc12)NC(=O)[C@H](CCC(N)=O)NC(=O)[C@@H](NC(=O)[C@H](Cc1ccccc1)NC(=O)[C@H](CC(=O)O)NC(=O)[C@H](CCCNC(=N)N)NC(=O)[C@H](C)NC(=O)[C@H](CCCNC(=N)N)NC(=O)[C@H](CCCCNC(=O)COCCOCCNC(=O)COCCOCCNC(=O)CC[C@H](NC(=O)CCCCCCCCCCCCCCCCC(=O)O)C(=O)O)NC(=O)[C@H](CCCCN)NC(=O)[C@H](CC(=O)O)NC(=O)[C@H](CC(C)C)NC(=O)[C@](C)(Cc1ccccc1)NC(=O)[C@H](CCCCN)NC(=O)[C@H](CO)NC(=O)[C@@H](NC(=O)[C@H](CC(=O)O)NC(=O)[C@H](CO)NC(=O)[C@@H](NC(=O)[C@H](Cc1ccccc1)NC(=O)[C@@H](NC(=O)CNC(=O)[C@H](CCC(N)=O)NC(=O)C(C)(C)NC(=O)[C@@H](N)Cc1c[nH]cn1)[C@@H](C)O)[C@@H](C)O)C(C)C)C(C)C)C(=O)N[C@@H](CC(C)C)C(=O)NC(C)(C)C(=O)N[C@@H](CCC(=O)O)C(N)=O
For the molecule B1, the “cAMP production EC50” value is 0.00763 nM with human GLP-1 receptor and 0.0111 nM with human glucagon receptor.

B2: Peptide 466 (peptide)
peptide: H[Aib]QGTFTSDVSK[αMeF]LDTK([AEEA-AEEA-γGlu-C18 diacid])RAQDFVQWLLE[Aib]G-NH2
modifications: N-terminus assumed
SMILES: CC(C)C[C@H](NC(=O)[C@H](Cc1c[nH]c2ccccc12)NC(=O)[C@H](CCC(N)=O)NC(=O)[C@@H](NC(=O)[C@H](Cc1ccccc1)NC(=O)[C@H](CC(=O)O)NC(=O)[C@H](CCC(N)=O)NC(=O)[C@H](C)NC(=O)[C@H](CCCNC(=N)N)NC(=O)[C@H](CCCCNC(=O)COCCOCCNC(=O)COCCOCCNC(=O)CC[C@H](NC(=O)CCCCCCCCCCCCCCCCC(=O)O)C(=O)O)NC(=O)[C@@H](NC(=O)[C@H](CC(=O)O)NC(=O)[C@H](CC(C)C)NC(=O)[C@](C)(Cc1ccccc1)NC(=O)[C@H](CCCCN)NC(=O)[C@H](CO)NC(=O)[C@@H](NC(=O)[C@H](CC(=O)O)NC(=O)[C@H](CO)NC(=O)[C@@H](NC(=O)[C@H](Cc1ccccc1)NC(=O)[C@@H](NC(=O)CNC(=O)[C@H](CCC(N)=O)NC(=O)C(C)(C)NC(=O)[C@@H](N)Cc1c[nH]cn1)[C@@H](C)O)[C@@H](C)O)C(C)C)[C@@H](C)O)C(C)C)C(=O)N[C@@H](CC(C)C)C(=O)N[C@@H](CCC(=O)O)C(=O)NC(C)(C)C(=O)NCC(N)=O
Take B2: the “cAMP production EC50” value in the test with human GLP-1 receptor was 0.0356 nM; with human glucagon receptor it was 0.131 nM.

B3: Peptide 462 (peptide)
peptide: H[Aib]QGTFTSDVSK[αMeF]LDTK([AEEA-AEEA-γGlu-C18 diacid])RARDFVQWLLEAG-OH
modifications: N-terminus assumed
SMILES: CC(C)C[C@H](NC(=O)[C@H](CC(C)C)NC(=O)[C@H](Cc1c[nH]c2ccccc12)NC(=O)[C@H](CCC(N)=O)NC(=O)[C@@H](NC(=O)[C@H](Cc1ccccc1)NC(=O)[C@H](CC(=O)O)NC(=O)[C@H](CCCNC(=N)N)NC(=O)[C@H](C)NC(=O)[C@H](CCCNC(=N)N)NC(=O)[C@H](CCCCNC(=O)COCCOCCNC(=O)COCCOCCNC(=O)CC[C@H](NC(=O)CCCCCCCCCCCCCCCCC(=O)O)C(=O)O)NC(=O)[C@@H](NC(=O)[C@H](CC(=O)O)NC(=O)[C@H](CC(C)C)NC(=O)[C@](C)(Cc1ccccc1)NC(=O)[C@H](CCCCN)NC(=O)[C@H](CO)NC(=O)[C@@H](NC(=O)[C@H](CC(=O)O)NC(=O)[C@H](CO)NC(=O)[C@@H](NC(=O)[C@H](Cc1ccccc1)NC(=O)[C@@H](NC(=O)CNC(=O)[C@H](CCC(N)=O)NC(=O)C(C)(C)NC(=O)[C@@H](N)Cc1c[nH]cn1)[C@@H](C)O)[C@@H](C)O)C(C)C)[C@@H](C)O)C(C)C)C(=O)N[C@@H](CCC(=O)O)C(=O)N[C@@H](C)C(=O)NCC(=O)O
Regarding B3, the “cAMP production EC50” value with human GLP-1 receptor was determined as 0.0395 nM; in the test with human glucagon receptor, 0.0892 nM.

B4: Peptide 473 (peptide)
peptide: H[Aib]QGTFTSDVSK[αMeF]LDRK([AEEA-AEEA-γGlu-C18 diacid])RARDFVQWLL[Aib]E-NH2
modifications: N-terminus assumed
SMILES: CC(C)C[C@H](NC(=O)[C@H](Cc1c[nH]c2ccccc12)NC(=O)[C@H](CCC(N)=O)NC(=O)[C@@H](NC(=O)[C@H](Cc1ccccc1)NC(=O)[C@H](CC(=O)O)NC(=O)[C@H](CCCNC(=N)N)NC(=O)[C@H](C)NC(=O)[C@H](CCCNC(=N)N)NC(=O)[C@H](CCCCNC(=O)COCCOCCNC(=O)COCCOCCNC(=O)CC[C@H](NC(=O)CCCCCCCCCCCCCCCCC(=O)O)C(=O)O)NC(=O)[C@H](CCCNC(=N)N)NC(=O)[C@H](CC(=O)O)NC(=O)[C@H](CC(C)C)NC(=O)[C@](C)(Cc1ccccc1)NC(=O)[C@H](CCCCN)NC(=O)[C@H](CO)NC(=O)[C@@H](NC(=O)[C@H](CC(=O)O)NC(=O)[C@H](CO)NC(=O)[C@@H](NC(=O)[C@H](Cc1ccccc1)NC(=O)[C@@H](NC(=O)CNC(=O)[C@H](CCC(N)=O)NC(=O)C(C)(C)NC(=O)[C@@H](N)Cc1c[nH]cn1)[C@@H](C)O)[C@@H](C)O)C(C)C)C(C)C)C(=O)N[C@@H](CC(C)C)C(=O)NC(C)(C)C(=O)N[C@@H](CCC(=O)O)C(N)=O
Regarding B4, the “cAMP production EC50” value came out at 0.0115 nM in the test with human GLP-1 receptor and 0.0141 nM in the test with human glucagon receptor.

B5: Peptide 465 (peptide)
peptide: H[Aib]QGTFTSDVSK[αMeF]LDLK([AEEA-AEEA-γGlu-γGlu-C18 diacid])RAQDFVQWLL[Aib]T-OH
modifications: N-terminus assumed
SMILES: CC(C)C[C@H](NC(=O)[C@H](CC(=O)O)NC(=O)[C@H](CC(C)C)NC(=O)[C@](C)(Cc1ccccc1)NC(=O)[C@H](CCCCN)NC(=O)[C@H](CO)NC(=O)[C@@H](NC(=O)[C@H](CC(=O)O)NC(=O)[C@H](CO)NC(=O)[C@@H](NC(=O)[C@H](Cc1ccccc1)NC(=O)[C@@H](NC(=O)CNC(=O)[C@H](CCC(N)=O)NC(=O)C(C)(C)NC(=O)[C@@H](N)Cc1c[nH]cn1)[C@@H](C)O)[C@@H](C)O)C(C)C)C(=O)N[C@@H](CCCCNC(=O)COCCOCCNC(=O)COCCOCCNC(=O)CC[C@H](NC(=O)CC[C@H](NC(=O)CCCCCCCCCCCCCCCCC(=O)O)C(=O)O)C(=O)O)C(=O)N[C@@H](CCCNC(=N)N)C(=O)N[C@@H](C)C(=O)N[C@@H](CCC(N)=O)C(=O)N[C@@H](CC(=O)O)C(=O)N[C@@H](Cc1ccccc1)C(=O)N[C@H](C(=O)N[C@@H](CCC(N)=O)C(=O)N[C@@H](Cc1c[nH]c2ccccc12)C(=O)N[C@@H](CC(C)C)C(=O)N[C@@H](CC(C)C)C(=O)NC(C)(C)C(=O)N[C@H](C(=O)O)[C@@H](C)O)C(C)C
With B5, the results for the “cAMP production EC50” value in the test with human GLP-1 receptor and with human glucagon receptor were 0.485 nM and 0.436 nM, respectively.

B6: Peptide 469 (peptide)
peptide: H[Aib]QGTFTSDVSK[αMeF]LDTK([AEEA-AEEA-γGlu-γGlu-C20 diacid])RAQDFVQWLLE[Aib]G-NH2
modifications: N-terminus assumed
SMILES: CC(C)C[C@H](NC(=O)[C@H](Cc1c[nH]c2ccccc12)NC(=O)[C@H](CCC(N)=O)NC(=O)[C@@H](NC(=O)[C@H](Cc1ccccc1)NC(=O)[C@H](CC(=O)O)NC(=O)[C@H](CCC(N)=O)NC(=O)[C@H](C)NC(=O)[C@H](CCCNC(=N)N)NC(=O)[C@H](CCCCNC(=O)COCCOCCNC(=O)COCCOCCNC(=O)CC[C@H](NC(=O)CC[C@H](NC(=O)CCCCCCCCCCCCCCCCCCC(=O)O)C(=O)O)C(=O)O)NC(=O)[C@@H](NC(=O)[C@H](CC(=O)O)NC(=O)[C@H](CC(C)C)NC(=O)[C@](C)(Cc1ccccc1)NC(=O)[C@H](CCCCN)NC(=O)[C@H](CO)NC(=O)[C@@H](NC(=O)[C@H](CC(=O)O)NC(=O)[C@H](CO)NC(=O)[C@@H](NC(=O)[C@H](Cc1ccccc1)NC(=O)[C@@H](NC(=O)CNC(=O)[C@H](CCC(N)=O)NC(=O)C(C)(C)NC(=O)[C@@H](N)Cc1c[nH]cn1)[C@@H](C)O)[C@@H](C)O)C(C)C)[C@@H](C)O)C(C)C)C(=O)N[C@@H](CC(C)C)C(=O)N[C@@H](CCC(=O)O)C(=O)NC(C)(C)C(=O)NCC(N)=O
For the molecule B6, the “cAMP production EC50” value in the test with human GLP-1 receptor was 0.255 nM; in the test with human glucagon receptor, 0.538 nM.

B7: Peptide 470 (peptide)
peptide: H[Aib]QGTFTSDVSK[αMeF]LDKK([AEEA-AEEA-γGlu-C20 diacid])RARDFVQWLL[Aib]E-NH2
modifications: N-terminus assumed
SMILES: CC(C)C[C@H](NC(=O)[C@H](Cc1c[nH]c2ccccc12)NC(=O)[C@H](CCC(N)=O)NC(=O)[C@@H](NC(=O)[C@H](Cc1ccccc1)NC(=O)[C@H](CC(=O)O)NC(=O)[C@H](CCCNC(=N)N)NC(=O)[C@H](C)NC(=O)[C@H](CCCNC(=N)N)NC(=O)[C@H](CCCCNC(=O)COCCOCCNC(=O)COCCOCCNC(=O)CC[C@H](NC(=O)CCCCCCCCCCCCCCCCCCC(=O)O)C(=O)O)NC(=O)[C@H](CCCCN)NC(=O)[C@H](CC(=O)O)NC(=O)[C@H](CC(C)C)NC(=O)[C@](C)(Cc1ccccc1)NC(=O)[C@H](CCCCN)NC(=O)[C@H](CO)NC(=O)[C@@H](NC(=O)[C@H](CC(=O)O)NC(=O)[C@H](CO)NC(=O)[C@@H](NC(=O)[C@H](Cc1ccccc1)NC(=O)[C@@H](NC(=O)CNC(=O)[C@H](CCC(N)=O)NC(=O)C(C)(C)NC(=O)[C@@H](N)Cc1c[nH]cn1)[C@@H](C)O)[C@@H](C)O)C(C)C)C(C)C)C(=O)N[C@@H](CC(C)C)C(=O)NC(C)(C)C(=O)N[C@@H](CCC(=O)O)C(N)=O
Take B7: the “cAMP production EC50” value stood at 0.0559 nM with human GLP-1 receptor and 0.0303 nM with human glucagon receptor.

In the case of H[Aib]QGTFTSDVSK[αMeF]LDTK([AEEA-AEEA-γGlu-γGlu-C18 diacid])RAQDFVQWLLE[Aib]G-NH2 [Peptide 468], the “cAMP production EC50” value in the test with human GLP-1 receptor worked out at 0.0675 nM; with human glucagon receptor it was 0.292 nM.

For the molecule H[Aib]QGTFTSDVSK[αMeF]LDRK([AEEA-AEEA-γGlu-C20 diacid])RARDFVQWLL[Aib]E-NH2 [Peptide 471], the “cAMP production EC50” value amounted to 0.102 nM with human GLP-1 receptor and 0.0636 nM with human glucagon receptor.

For the origin of these results see patent US12630600B2 (MEDIMMUNE LIMITED, priority 2022, dated 2026).
